Data on 58 molecules can be found in patent US20220112244A1 (DOMPE FARMACEUTICI S P A, published 2022).

The target in the assay is IL-17A (agonist in the IL-17RA/IL17RC dimerization assay) (UniProt Q16552 24-155). Description: cell-based or functional assay.
IL-17A (agonist in the IL-17RA/IL17RC dimerization assay), sequence (Q16552 24-155 limits assumed): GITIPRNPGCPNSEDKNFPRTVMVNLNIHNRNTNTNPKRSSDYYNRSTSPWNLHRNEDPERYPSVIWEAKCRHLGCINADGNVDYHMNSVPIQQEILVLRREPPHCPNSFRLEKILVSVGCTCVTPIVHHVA
Take Ac-IHVTIPADLWDWINH-NH2 [peptide of SEQ ID NO: 222]: the “IC50 in IL-17RA/IL7RC dimerization assay” value is below 10 µM.
The same measure for Ac-IHGTIPADLWDWINK-NH2 [peptide of SEQ ID NO: 168]: below 10 µM; for Ac-IHVTIPADAWDWINK-NH2 [peptide of SEQ ID NO: 201]: below 10 µM.
Under Ac-IHVTYPADLWDWINK-NH2 [peptide of SEQ ID NO: 185] stands below 10 µM; under Ac-IHFTIPADLWDWINK-NH2 [peptide of SEQ ID NO: 174], below 10 µM; under Ac-IHITIPADLWDWINK-NH2 [peptide of SEQ ID NO: 171], below 10 µM.
The same measure for Ac-IHVTLPADLWDWINK-NH2 [peptide of SEQ ID NO: 181]: below 10 µM; for Ac-IHVTIPAQLWDWINK-NH2 [peptide of SEQ ID NO: 199]: below 10 µM.
On to Ac-IHVTIPADLWDWLNK-NH2 [peptide of SEQ ID NO: 216], for which the “IC50 in IL-17RA/IL7RC dimerization assay” value was below 10 µM.
Take Ac-IHVTIPADLFDWINK-NH2 [peptide of SEQ ID NO: 207]: the “IC50 in IL-17RA/IL7RC dimerization assay” value was below 10 µM.
For Ac-IHVYIPADLWDWINK-NH2 [peptide of SEQ ID NO: 176], the “IC50 in IL-17RA/IL7RC dimerization assay” value was below 10 µM.
As to Ac-IHVTIPPDLWDWINK-NH2 [peptide of SEQ ID NO: 194], the “IC50 in IL-17RA/IL7RC dimerization assay” value was below 10 µM.
With Ac-IHVTIPADLWDWENK-NH2 [peptide of SEQ ID NO: 212], the “IC50 in IL-17RA/IL7RC dimerization assay” value was below 10 µM.
For Ac-IHATIPADLWDWINK-NH2 [peptide of SEQ ID NO: 167], the “IC50 in IL-17RA/IL7RC dimerization assay” value was below 10 µM.
With Ac-IHVTIPADLWNWINK-NH2 [peptide of SEQ ID NO: 208], the “IC50 in IL-17RA/IL7RC dimerization assay” value is below 10 µM.
As to Ac-IHVTAPADLWDWINK-NH2 [peptide of SEQ ID NO: 179], the “IC50 in IL-17RA/IL7RC dimerization assay” value is below 10 µM.
As for Ac-IEVTIPADLWDWINK-NH2 [peptide of SEQ ID NO: 164], the “IC50 in IL-17RA/IL7RC dimerization assay” value is below 10 µM.
The same measure for Ac-IHVTIPLDLWDWINK-NH2 [peptide of SEQ ID NO: 193]: below 10 µM.
As to Ac-IHVTIPADLWDWANK-NH2 [peptide of SEQ ID NO: 214], the “IC50 in IL-17RA/IL7RC dimerization assay” value was below 10 µM.
The same measure for Ac-IHVTIVADLWDWINK-NH2 [peptide of SEQ ID NO: 189]: below 10 µM; for Ac-IHVTIPADPWDWINK-NH2 [peptide of SEQ ID NO: 203]: below 10 µM.
Regarding Ac-IHVTIPADLWDWKNK-NH2 [peptide of SEQ ID NO: 213], the “IC50 in IL-17RA/IL7RC dimerization assay” value is below 10 µM.
Ac-IHVTIPADLWDWYNK-NH2 [peptide of SEQ ID NO: 219]: the “IC50 in IL-17RA/IL7RC dimerization assay” value is below 10 µM.
Under Ac-IHPTIPADLWDWINK-NH2 [peptide of SEQ ID NO: 170] stands below 10 µM; under Ac-IHVTIPADLWDWPNK-NH2 [peptide of SEQ ID NO: 217], below 10 µM.
As for Ac-IHVTIGADLWDWINK-NH2 [peptide of SEQ ID NO: 187], the “IC50 in IL-17RA/IL7RC dimerization assay” value was below 10 µM.
Under Ac-IHVTIPADGWDWINK-NH2 [peptide of SEQ ID NO: 202] stands below 10 µM.
The same measure for Ac-IHLTIPADLWDWINK-NH2 [peptide of SEQ ID NO: 169]: below 10 µM; for Ac-IHVTIPADLHDWINK-NH2 [peptide of SEQ ID NO: 206]: below 10 µM; for Ac-IHVTFPADLWDWINK-NH2 [peptide of SEQ ID NO: 184]: below 10 µM.
Under Ac-IHVTINADLWDWINK-NH2 [peptide of SEQ ID NO: 191] stands below 10 µM; under Ac-IHVTIPADLWDWVEE-NH2 [peptide of SEQ ID NO: 15], below 0.4 µM; under Ac-IHVTILADLWDWINK-NH2 [peptide of SEQ ID NO: 188], below 10 µM.
As to Ac-IHVTVPADLWDWINK-NH2 [peptide of SEQ ID NO: 183], the “IC50 in IL-17RA/IL7RC dimerization assay” value is below 10 µM.
The same measure for Ac-IQVTIPADLWDWINK-NH2 [peptide of SEQ ID NO: 165]: below 10 µM.
Under Ac-IHWTIPADLWDWINK-NH2 [peptide of SEQ ID NO: 173] stands below 10 µM; under Ac-IHVTGPADLWDWINK-NH2 [peptide of SEQ ID NO: 180], below 10 µM; under Ac-IHVTIIADLWDWINK-NH2 [peptide of SEQ ID NO: 190], below 10 µM.
The same measure for Ac-IHVQIPADLWDWINK-NH2 [peptide of SEQ ID NO: 178]: below 10 µM; for Ac-IHVTIPAYLWDWINK-NH2 [peptide of SEQ ID NO: 200]: below 10 µM; for Ac-IHVNIPADLWDWINK-NH2 [peptide of SEQ ID NO: 177]: below 10 µM.
Take Ac-IHVTIPADIWDWINK-NH2 [peptide of SEQ ID NO: 205]: the “IC50 in IL-17RA/IL7RC dimerization assay” value is below 10 µM.
Take Ac-IHVTIPADLWDWIEK-NH2 [peptide of SEQ ID NO: 11]: the “IC50 in IL-17RA/IL7RC dimerization assay” value is below 0.4 µM.
Consider Ac-IHVTIPVDLWDWINK-NH2 [peptide of SEQ ID NO: 195], for which the “IC50 in IL-17RA/IL7RC dimerization assay” value is below 10 µM.
Under Ac-IYVTIPADLWDWINK-NH2 [peptide of SEQ ID NO: 166] stands below 10 µM.
Under Ac-IHVTIPADLWDFINK-NH2 [peptide of SEQ ID NO: 210] stands below 10 µM; under Ac-IHVSIPADLWDWINK-NH2 [peptide of SEQ ID NO: 175], below 10 µM; under Ac-IHVTIPADLWDWFNK-NH2 [peptide of SEQ ID NO: 218], below 10 µM.
Take Ac-IHVTIPNDLWDWINK-NH2 [peptide of SEQ ID NO: 197]: the “IC50 in IL-17RA/IL7RC dimerization assay” value is below 10 µM.
On to Ac-IHVTIPADVWDWINK-NH2 [peptide of SEQ ID NO: 204], for which the “IC50 in IL-17RA/IL7RC dimerization assay” value is below 10 µM.
Under Ac-IHVTIPADLWDWIDK-NH2 [peptide of SEQ ID NO: 221] stands below 10 µM; under Ac-IHVTIPIDLWDWINK-NH2 [peptide of SEQ ID NO: 196], below 10 µM.
As to Ac-IHVTIPADLWDYINK-NH2 [peptide of SEQ ID NO: 211], the “IC50 in IL-17RA/IL7RC dimerization assay” value is below 10 µM.
Under Ac-IHYTIPADLWDWINK-NH2 [peptide of SEQ ID NO: 172] stands below 10 µM; under Ac-IHVTIPADLWDWIQK-NH2 [peptide of SEQ ID NO: 220], below 10 µM; under Ac-IHVTIPADLWDWGNK-NH2 [peptide of SEQ ID NO: 215], below 10 µM.
Under Ac-IHVTIPQDLWDWINK-NH2 [peptide of SEQ ID NO: 198] stands below 10 µM.
The same measure for Ac-IHVTIPADLWDHINK-NH2 [peptide of SEQ ID NO: 209]: below 10 µM.
